# From ChEMBL document CHEMBL1212811, “Chemical phylogenetics of histone deacetylases” (Nat Chem Biol, 2010)
# B1: Histone deacetylase 7 (Homo sapiens), Q8WUI4 (protein)
# chain: MDLRVGQRPPVEPPPEPTLLALQRPQRLHHHLFLAGLQQQRSVEPMRLSMDTPMPELQVGPQEQELRQLLHKDKSKRSAVASSVVKQKLAEVILKKQQAALERTVHPNSPGIPYRTLEPLETEGATRSMLSSFLPPVPSLPSDPPEHFPLRKTVSEPNLKLRYKPKKSLERRKNPLLRKESAPPSLRRRPAETLGDSSPSSSSTPASGCSSPNDSEHGPNPILGSEALLGQRLRLQETSVAPFALPTVSLLPAITLGLPAPARADSDRRTHPTLGPRGPILGSPHTPLFLPHGLEPEAGGTLPSRLQPILLLDPSGSHAPLLTVPGLGPLPFHFAQSLMTTERLSGSGLHWPLSRTRSEPLPPSATAPPPPGPMQPRLEQLKTHVQVIKRSAKPSEKPRLRQIPSAEDLETDGGGPGQVVDDGLEHRELGHGQPEARGPAPLQQHPQVLLWEQQRLAGRLPRGSTGDTVLLPLAQGGHRPLSRAQSSPAAPASLSAPEPASQARVLSSSETPARTLPFTTGLIYDSVMLKHQCSCGDNSRHPEHAGRIQSIWSRLQERGLRSQCECLRGRKASLEELQSVHSERHVLLYGTNPLSRLKLDNGKLAGLLAQRMFVMLPCGGVGVDTDTIWNELHSSNAARWAAGSVTDLAFKVASRELKNGFAVVRPPGHHADHSTAMGFCFFNSVAIACRQLQQQSKASKILIVDWDVHHGNGTQQTFYQDPSVLYISLHRHDDGNFFPGSGAVDEVGAGSGEGFNVNVAWAGGLDPPMGDPEYLAAFRIVVMPIAREFSPDLVLVSAGFDAAEGHPAPLGGYHVSAKCFGYMTQQLMNLAGGAVVLALEGGHDLTAICDASEACVAALLGNRVDPLSEEGWKQKPNLNAIRSLEAVIRVHSKYWGCMQRLASCPDSWVPRVPGADKEEVEAVTALASLSVGILAEDRPSEQLVEEEEPMNL
# B2: Protein deacetylase HDAC6 (Homo sapiens), Q9UBN7 (protein)
# chain: MTSTGQDSTTTRQRRSRQNPQSPPQDSSVTSKRNIKKGAVPRSIPNLAEVKKKGKMKKLGQAMEEDLIVGLQGMDLNLEAEALAGTGLVLDEQLNEFHCLWDDSFPEGPERLHAIKEQLIQEGLLDRCVSFQARFAEKEELMLVHSLEYIDLMETTQYMNEGELRVLADTYDSVYLHPNSYSCACLASGSVLRLVDAVLGAEIRNGMAIIRPPGHHAQHSLMDGYCMFNHVAVAARYAQQKHRIRRVLIVDWDVHHGQGTQFTFDQDPSVLYFSIHRYEQGRFWPHLKASNWSTTGFGQGQGYTINVPWNQVGMRDADYIAAFLHVLLPVALEFQPQLVLVAAGFDALQGDPKGEMAATPAGFAQLTHLLMGLAGGKLILSLEGGYNLRALAEGVSASLHTLLGDPCPMLESPGAPCRSAQASVSCALEALEPFWEVLVRSTETVERDNMEEDNVEESEEEGPWEPPVLPILTWPVLQSRTGLVYDQNMMNHCNLWDSHHPEVPQRILRIMCRLEELGLAGRCLTLTPRPATEAELLTCHSAEYVGHLRATEKMKTRELHRESSNFDSIYICPSTFACAQLATGAACRLVEAVLSGEVLNGAAVVRPPGHHAEQDAACGFCFFNSVAVAARHAQTISGHALRILIVDWDVHHGNGTQHMFEDDPSVLYVSLHRYDHGTFFPMGDEGASSQIGRAAGTGFTVNVAWNGPRMGDADYLAAWHRLVLPIAYEFNPELVLVSAGFDAARGDPLGGCQVSPEGYAHLTHLLMGLASGRIILILEGGYNLTSISESMAACTRSLLGDPPPLLTLPRPPLSGALASITETIQVHRRYWRSLRVMKVEDREGPSSSKLVTKKAPQPAKPRLAERMTTREKKVLEAGMGKVTSASFGEESTPGQTNSETAVVALTQDQPSEAATGGATLAQTISEAAIGGAMLGQTTSEEAVGGATPDQTTSEETVGGAILDQTTSEDAVGGATLGQTTSEEAVGGATLAQTTSEAAMEGATLDQTTSEEAPGGTELIQTPLASSTDHQTPPTSPVQGTTPQISPSTLIGSLRTLELGSESQGASESQAPGEENLLGEAAGGQDMADSMLMQGSRGLTDQAIFYAVTPLPWCPHLVAVCPIPAAGLDVTQPCGDCGTIQENWVCLSCYQVYCGRYINGHMLQHHGNSGHPLVLSYIDLSAWCYYCQAYVHHQALLDVKNIAHQNKFGEDMPHPH
# B3: Histone deacetylase 4 (Homo sapiens), P56524 (protein)
# chain: MSSQSHPDGLSGRDQPVELLNPARVNHMPSTVDVATALPLQVAPSAVPMDLRLDHQFSLPVAEPALREQQLQQELLALKQKQQIQRQILIAEFQRQHEQLSRQHEAQLHEHIKQQQEMLAMKHQQELLEHQRKLERHRQEQELEKQHREQKLQQLKNKEKGKESAVASTEVKMKLQEFVLNKKKALAHRNLNHCISSDPRYWYGKTQHSSLDQSSPPQSGVSTSYNHPVLGMYDAKDDFPLRKTASEPNLKLRSRLKQKVAERRSSPLLRRKDGPVVTALKKRPLDVTDSACSSAPGSGPSSPNNSSGSVSAENGIAPAVPSIPAETSLAHRLVAREGSAAPLPLYTSPSLPNITLGLPATGPSAGTAGQQDAERLTLPALQQRLSLFPGTHLTPYLSTSPLERDGGAAHSPLLQHMVLLEQPPAQAPLVTGLGALPLHAQSLVGADRVSPSIHKLRQHRPLGRTQSAPLPQNAQALQHLVIQQQHQQFLEKHKQQFQQQQLQMNKIIPKPSEPARQPESHPEETEEELREHQALLDEPYLDRLPGQKEAHAQAGVQVKQEPIESDEEEAEPPREVEPGQRQPSEQELLFRQQALLLEQQRIHQLRNYQASMEAAGIPVSFGGHRPLSRAQSSPASATFPVSVQEPPTKPRFTTGLVYDTLMLKHQCTCGSSSSHPEHAGRIQSIWSRLQETGLRGKCECIRGRKATLEELQTVHSEAHTLLYGTNPLNRQKLDSKKLLGSLASVFVRLPCGGVGVDSDTIWNEVHSAGAARLAVGCVVELVFKVATGELKNGFAVVRPPGHHAEESTPMGFCYFNSVAVAAKLLQQRLSVSKILIVDWDVHHGNGTQQAFYSDPSVLYMSLHRYDDGNFFPGSGAPDEVGTGPGVGFNVNMAFTGGLDPPMGDAEYLAAFRTVVMPIASEFAPDVVLVSSGFDAVEGHPTPLGGYNLSARCFGYLTKQLMGLAGGRIVLALEGGHDLTAICDASEACVSALLGNELDPLPEKVLQQRPNANAVRSMEKVMEIHSKYWRCLQRTTSTAGRSLIEAQTCENEEAETVTAMASLSVGVKPAEKRPDEEPMEEEPPL
# B4: Histone deacetylase 3 (Homo sapiens), O15379 (protein)
# chain: MAKTVAYFYDPDVGNFHYGAGHPMKPHRLALTHSLVLHYGLYKKMIVFKPYQASQHDMCRFHSEDYIDFLQRVSPTNMQGFTKSLNAFNVGDDCPVFPGLFEFCSRYTGASLQGATQLNNKICDIAINWAGGLHHAKKFEASGFCYVNDIVIGILELLKYHPRVLYIDIDIHHGDGVQEAFYLTDRVMTVSFHKYGNYFFPGTGDMYEVGAESGRYYCLNVPLRDGIDDQSYKHLFQPVINQVVDFYQPTCIVLQCGADSLGCDRLGCFNLSIRGHGECVEYVKSFNIPLLVLGGGGYTVRNVARCWTYETSLLVEEAISEELPYSEYFEYFAPDFTLHPDVSTRIENQNSRQYLDQIRQTIFENLKMLNHAPSVQIHDVPADLLTYDRTDEADAEERGPEENYSRPEAPNEFYDGDHDNDKESDVEI
# B5: Histone deacetylase 8 (Homo sapiens), Q9BY41 (protein)
# chain: MEEPEEPADSGQSLVPVYIYSPEYVSMCDSLAKIPKRASMVHSLIEAYALHKQMRIVKPKVASMEEMATFHTDAYLQHLQKVSQEGDDDHPDSIEYGLGYDCPATEGIFDYAAAIGGATITAAQCLIDGMCKVAINWSGGWHHAKKDEASGFCYLNDAVLGILRLRRKFERILYVDLDLHHGDGVEDAFSFTSKVMTVSLHKFSPGFFPGTGDVSDVGLGKGRYYSVNVPIQDGIQDEKYYQICESVLKEVYQAFNPKAVVLQLGADTIAGDPMCSFNMTPVGIGKCLKYILQWQLATLILGGGGYNLANTARCWTYLTGVILGKTLSSEIPDHEFFTAYGPDYVLEITPSCRPDRNEPHRIQQILNYIKGNLKHVV
# B6: Histone deacetylase 9 (Homo sapiens), Q9UKV0 (protein)
# chain: MHSMISSVDVKSEVPVGLEPISPLDLRTDLRMMMPVVDPVVREKQLQQELLLIQQQQQIQKQLLIAEFQKQHENLTRQHQAQLQEHIKELLAIKQQQELLEKEQKLEQQRQEQEVERHRREQQLPPLRGKDRGRERAVASTEVKQKLQEFLLSKSATKDTPTNGKNHSVSRHPKLWYTAAHHTSLDQSSPPLSGTSPSYKYTLPGAQDAKDDFPLRKTASEPNLKVRSRLKQKVAERRSSPLLRRKDGNVVTSFKKRMFEVTESSVSSSSPGSGPSSPNNGPTGSVTENETSVLPPTPHAEQMVSQQRILIHEDSMNLLSLYTSPSLPNITLGLPAVPSQLNASNSLKEKQKCETQTLRQGVPLPGQYGGSIPASSSHPHVTLEGKPPNSSHQALLQHLLLKEQMRQQKLLVAGGVPLHPQSPLATKERISPGIRGTHKLPRHRPLNRTQSAPLPQSTLAQLVIQQQHQQFLEKQKQYQQQIHMNKLLSKSIEQLKQPGSHLEEAEEELQGDQAMQEDRAPSSGNSTRSDSSACVDDTLGQVGAVKVKEEPVDSDEDAQIQEMESGEQAAFMQQPFLEPTHTRALSVRQAPLAAVGMDGLEKHRLVSRTHSSPAASVLPHPAMDRPLQPGSATGIAYDPLMLKHQCVCGNSTTHPEHAGRIQSIWSRLQETGLLNKCERIQGRKASLEEIQLVHSEHHSLLYGTNPLDGQKLDPRILLGDDSQKFFSSLPCGGLGVDSDTIWNELHSSGAARMAVGCVIELASKVASGELKNGFAVVRPPGHHAEESTAMGFCFFNSVAITAKYLRDQLNISKILIVDLDVHHGNGTQQAFYADPSILYISLHRYDEGNFFPGSGAPNEVGTGLGEGYNINIAWTGGLDPPMGDVEYLEAFRTIVKPVAKEFDPDMVLVSAGFDALEGHTPPLGGYKVTAKCFGHLTKQLMTLADGRVVLALEGGHDLTAICDASEACVNALLGNELEPLAEDILHQSPNMNAVISLQKIIEIQSMSLKFS
# What was measured:
# [1] = substrate: CC(=O)N[C@@H](CC(C)C)C(=O)NCC(=O)N[C@@H](CCCCNC(=O)C(F)(F)F)C(=O)Nc1ccc2c(C)cc(=O)oc2c1; assay: Activity of HDAC7 at 10 uM
# [2] = substrate: CC(=O)NCCCC[C@H](NC(=O)CNC(=O)[C@H](CC(C)C)NC(C)=O)C(=O)Nc1ccc2c(C)cc(=O)oc2c1; conditions: 10 uM
# [3] = substrate: CC(=O)N[C@@H](CC(C)C)C(=O)NCC(=O)N[C@@H](CCCCNC(=O)C(F)(F)F)C(=O)Nc1ccc2c(C)cc(=O)oc2c1; assay: Activity of HDAC4 at 10 uM
# [4] = substrate: CC(=O)NCCCC[C@H](NC(=O)CNC(=O)[C@H](CC(C)C)NC(C)=O)C(=O)Nc1ccc2c(C)cc(=O)oc2c1; conditions: 10 uM; remark: listed apart in the source
# [5] = substrate: CC(=O)N[C@@H](CC(C)C)C(=O)NCC(=O)N[C@@H](CCCCNC(=O)C(F)(F)F)C(=O)Nc1ccc2c(C)cc(=O)oc2c1; assay: Activity of HDAC8 at 10 uM
# [6] = substrate: CC(=O)N[C@@H](CC(C)C)C(=O)NCC(=O)N[C@@H](CCCCNC(=O)C(F)(F)F)C(=O)Nc1ccc2c(C)cc(=O)oc2c1; assay: Activity of HDAC9 at 10 uM
protein,measurement,setting,value
B1,Km,[1],19.8 µM
B2,Km,[2],16 µM
B3,Km,[3],10.3 µM
B4,Km,[4],6 µM
B5,Km,[5],190 µM
B6,Km,[6],37 µM
